In patent publication US20180016328A1 (WASHINGTON UNIVERSITY, published 2018):

Target: T1, mouse tau (mouse, UniProt P10637-2 2-430, limits assumed)
T1 construct: also called mouse brain lysate comprising tau
Assay: Western blot of mouse brain lysate probed with the scFv (FIG. 4)
Text: FIG. 4 depicts Western blots showing that the scFv's detect human but not mouse tau. Mouse brain lysate comprising tau and recombinant human tau were both run on a gel and the scFv's SC1 (A) and SC3 (B) were used to detect tau. Recombinant human tau was detected by SC1 and SC3; mouse tau was not. Anti-vinculin Western blot was used as a loading control for tissue samples.

T1 sequence (P10637 other isoform, or with tags, fused parts or gaps limits assumed): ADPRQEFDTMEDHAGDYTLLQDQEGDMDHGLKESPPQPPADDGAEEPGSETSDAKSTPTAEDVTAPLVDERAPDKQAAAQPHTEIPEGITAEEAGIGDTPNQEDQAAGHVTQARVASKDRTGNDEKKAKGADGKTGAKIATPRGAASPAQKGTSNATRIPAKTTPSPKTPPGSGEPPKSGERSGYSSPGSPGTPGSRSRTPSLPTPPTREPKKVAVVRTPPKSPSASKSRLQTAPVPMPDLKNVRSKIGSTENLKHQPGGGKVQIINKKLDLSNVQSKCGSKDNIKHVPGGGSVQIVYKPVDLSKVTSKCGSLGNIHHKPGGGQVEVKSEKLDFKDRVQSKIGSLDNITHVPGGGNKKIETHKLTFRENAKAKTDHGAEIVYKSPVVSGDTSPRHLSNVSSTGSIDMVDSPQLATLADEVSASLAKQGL

Row | binding result | Binder
1 | no binding | SC1 scFv HJ8.5 HA (scFv, Encoded with an N-terminal secretory signal peptide (SP), left out here because the secreted protein was tested; also called HJ8.5 scFv SC1) scFv: DIVLTQSPASLAVSLGQRATISCRASQSVSTSRYSYIHWYQQKPGQPPKLLIKYASNLESGVPARFSGSGSGTDFTLNIHPLEEEDAATYYCHHSWEIPLTFGAGTKLELKGGGSEVKVEESGGGLVQPGGSMKLSCVVSGFTFSNYWVNWVRQSPEKGLEWVAQIRLKSDNYATHYEESVKGRFTISRDDSKSSVYLQMNNLRAEDSGIYYCTNWEDYWGQGTTLTVSSYPYDVPDYA
2 | no binding | SC3 scFv HJ8.5 HA (scFv, Encoded with an N-terminal secretory signal peptide (SP), left out here because the secreted protein was tested; also called HJ8.5 scFv SC3) scFv: DIVLTQSPASLAVSLGQRATISCRASQSVSTSRYSYIHWYQQKPGQPPKLLIKYASNLESGVPARFSGSGSGTDFTLNIHPLEEEDAATYYCHHSWEIPLTFGAGTKLELKSGGGSGGGSGGGSEVKVEESGGGLVQPGGSMKLSCVVSGFTFSNYWVNWVRQSPEKGLEWVAQIRLKSDNYATHYEESVKGRFTISRDDSKSSVYLQMNNLRAEDSGIYYCTNWEDYWGQGTTLTVSSYPYDVPDYA
